Results: patent publication US12692291 (PALATIN TECHNOLOGIES, dated 2026)
Where two headings read alike, the source gives them in different places. Bridges are numbered along the chain shown (N, C = ends). [ ]: non-standard residue; d: D form. dPhe(4-F) = N[C@H](Cc1ccc(F)cc1)C(=O)O; Nle = CCCC[C@H](N)C(=O)O

How the values were obtained:
Experiment in all cases: cell-based or functional assay
[1] = target: T1, melanocortin receptor-3 (MC3r), recombinant on HEK-293 cells
[2] = target: melanocortin receptor-5 (MC5r), assay other than CEREP
[3] = target: T2, melanocortin receptor-1 (MC1r), native on the mouse B16-F10 cell line (mouse, UniProt Q01727 1-315)
[4] = target: T3, melanocortin receptor-1 (MC1r), native on the human HBL cell line (human, UniProt Q01726 1-317)
[5] = target: T4, melanocortin receptor-4 (MC4r), recombinant on HEK-293 cells (human, UniProt P32245 1-332)
[6] = target: T5, human melanocortin receptor-5 (MC5), on CHO-K1 cells, CEREP assay 1869 (human, UniProt P33032 1-325)
[7] = target: T1, melanocortin receptor-3 (MC3r), …; remark: listed apart in the source
[8] = target: melanocortin receptor-5 (MC5r), assay other than CEREP; remark: listed apart in the source
[9] = target: T2, melanocortin receptor-1 (MC1r), native …; remark: listed apart in the source
[10] = target: T3, melanocortin receptor-1 (MC1r), native …; remark: listed apart in the source
[11] = target: T4, melanocortin receptor-4 (MC4r), …; remark: listed apart in the source
[12] = target: T5, human melanocortin receptor-5 (MC5), on …; remark: listed apart in the source

T1 sequence (P41968 whole entry): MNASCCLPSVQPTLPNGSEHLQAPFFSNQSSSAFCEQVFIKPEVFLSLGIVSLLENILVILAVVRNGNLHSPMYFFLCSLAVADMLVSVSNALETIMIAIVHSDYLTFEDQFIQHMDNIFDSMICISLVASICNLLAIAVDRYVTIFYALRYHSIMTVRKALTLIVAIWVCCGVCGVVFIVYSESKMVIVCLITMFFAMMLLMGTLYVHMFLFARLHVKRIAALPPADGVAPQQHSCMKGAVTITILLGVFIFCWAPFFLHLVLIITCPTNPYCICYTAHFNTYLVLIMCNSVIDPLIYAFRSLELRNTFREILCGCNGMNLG
T2 sequence (Q01727 whole entry): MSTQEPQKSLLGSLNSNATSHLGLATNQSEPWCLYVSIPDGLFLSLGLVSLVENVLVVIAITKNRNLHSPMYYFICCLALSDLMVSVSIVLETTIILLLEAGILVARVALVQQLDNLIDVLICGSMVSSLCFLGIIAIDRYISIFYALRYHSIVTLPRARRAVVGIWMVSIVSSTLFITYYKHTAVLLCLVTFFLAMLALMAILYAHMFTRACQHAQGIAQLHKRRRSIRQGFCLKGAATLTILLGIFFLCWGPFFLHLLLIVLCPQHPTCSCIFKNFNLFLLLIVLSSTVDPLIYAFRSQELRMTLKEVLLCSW
T3 sequence (Q01726 whole entry): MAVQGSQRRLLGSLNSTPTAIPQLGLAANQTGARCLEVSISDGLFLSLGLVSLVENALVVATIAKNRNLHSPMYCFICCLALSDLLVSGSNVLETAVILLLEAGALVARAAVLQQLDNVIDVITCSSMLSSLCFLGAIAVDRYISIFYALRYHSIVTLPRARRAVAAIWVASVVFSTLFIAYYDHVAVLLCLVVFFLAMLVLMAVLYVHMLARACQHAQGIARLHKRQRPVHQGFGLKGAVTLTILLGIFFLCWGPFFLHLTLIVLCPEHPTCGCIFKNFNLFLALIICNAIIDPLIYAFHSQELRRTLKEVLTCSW
T4 sequence (P32245 whole entry): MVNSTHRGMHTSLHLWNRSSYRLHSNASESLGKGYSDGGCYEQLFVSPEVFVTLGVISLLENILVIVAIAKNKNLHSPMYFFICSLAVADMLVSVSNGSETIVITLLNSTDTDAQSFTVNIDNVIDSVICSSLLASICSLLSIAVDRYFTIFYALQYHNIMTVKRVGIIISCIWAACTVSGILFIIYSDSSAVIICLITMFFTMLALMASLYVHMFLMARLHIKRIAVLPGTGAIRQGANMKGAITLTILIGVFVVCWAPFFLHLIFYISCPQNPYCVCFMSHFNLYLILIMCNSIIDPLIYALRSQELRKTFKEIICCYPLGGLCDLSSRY
Chain of melanocortin receptor-5 (MC5r), assay other than CEREP (P33032 whole entry): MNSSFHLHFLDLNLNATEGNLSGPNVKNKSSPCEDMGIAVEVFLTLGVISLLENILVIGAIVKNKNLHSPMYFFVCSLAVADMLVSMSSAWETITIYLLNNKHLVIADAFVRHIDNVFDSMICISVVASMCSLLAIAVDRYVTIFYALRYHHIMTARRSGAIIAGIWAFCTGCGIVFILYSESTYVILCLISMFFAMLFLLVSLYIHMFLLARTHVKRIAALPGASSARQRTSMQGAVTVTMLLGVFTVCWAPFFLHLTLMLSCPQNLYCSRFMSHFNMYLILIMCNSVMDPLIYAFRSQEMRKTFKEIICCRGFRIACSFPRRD
T5 sequence (P33032 whole entry): as above

B1: Peptide No. 60, Ac-Nle-cyclo(Glu-His-D-Phe(4-F)-Arg-Trp-NH-(CH2)4-NH) (peptide)
peptide: Ac-[Nle]EH[dPhe(4-F)]RW
modifications: bridge 2-C; not fully specified (C-terminus, bridges); printed as Ac-Nle-cyclo(Glu-His-D-Phe(4-F)-Arg-Trp-NH-(CH2)4-NH)
- EC50 (nM), cAMP accumulation [1]: 0.77 nM
- Fold Peptide No. 60 More Potent Than α-MSH (ratio of EC50 values) [1]: 3.9 fold
- EC50 [2]: 0.15 nM
- Fold Peptide No. 60 More Potent Than α-MSH (ratio of EC50 values) [2]: 686 fold
- EC50 (nM), cAMP accumulation [3]: 0.02 nM
- Fold Peptide No. 60 More Potent Than α-MSH (ratio of EC50 values) [3]: 11 fold
- EC50 (nM), cAMP accumulation [4]: 0.13 nM
- Fold Peptide No. 60 More Potent Than α-MSH (ratio of EC50 values) [4]: 69 fold
- EC50 (nM), cAMP accumulation [5]: 2 nM
- Fold Peptide No. 60 More Potent Than α-MSH (ratio of EC50 values) [5]: 1.5 fold
- EC50 (nM), cAMP production, HTRF, CEREP [6]: 0.39 nM
- Fold Peptide No. 60 More Potent Than α-MSH (ratio of EC50 values, CEREP) [6]: 930 fold
- EC50 (nM), cAMP accumulation [7]: 0.77 nM
- Fold Peptide No. 60 More Potent Than Bremelanotide (ratio of EC50 values) [7]: 4 fold
- EC50 [8]: 0.15 nM
- Fold Peptide No. 60 More Potent Than Bremelanotide (ratio of EC50 values) [8]: 22500 fold
- EC50 (nM), cAMP accumulation [9]: 0.02 nM
- Fold Peptide No. 60 More Potent Than Bremelanotide (ratio of EC50 values) [9]: 5 fold
- EC50 (nM), cAMP accumulation [10]: 0.13 nM
- Fold Peptide No. 60 More Potent Than Bremelanotide (ratio of EC50 values) [10]: 0.78 fold
- EC50 (nM), cAMP accumulation [11]: 2 nM
- Fold Peptide No. 60 More Potent Than Bremelanotide (ratio of EC50 values) [11]: 0.5 fold
- EC50 (nM), cAMP production, HTRF, CEREP [12]: 0.39 nM
- Fold Peptide No. 60 More Potent Than Bremelanotide (ratio of EC50 values, CEREP) [12]: > 25000 fold
